Patent US10196447B2, “Anti-vascular endothelial growth factor receptor 2 (VEGFR2) antibody and methods of use thereof for detecting VEGFR2 and for inhibiting tumor growth, tumor angiogenesis and/or inducing cancer cell cytotoxicity” (Academia Sinica, priority 2015, dated 2019)

Experiments:
VEGFR2 signaling pathway = test: Western blot of VEGF-A-induced phosphorylation in HUVECs; format: cell-based, human; conditions: 100 nM antibody
Source text: Western blots were pertbrmed using standard protocols, as previously described. The primary antibodies were purchased from Cell Signaling Technology and used at a 1,000-fold dilution for protein detection; the antibodies used are as follows: anti-VEGFR2 (clone 55B11), anti-phospho-VEGFR2 (Tyr1175; clone 19A10), anti-FAK, anti-phospho-FAK (Tyr397; cloneD20B1), anti-p42/44 MAPK, anti-phospho-p42/44 MAPK (Thr202/Tyr204; cloneD13.14.4E), anti-Akt, and anti-phospho-Akt (Ser473).

murine VEGFR2 protein = murine VEGFR2 protein (Mus musculus, UniProt P35918, DEL223-227); test: Cross-reactivity with murine VEGFR2; format: binding
Chain of murine VEGFR2 protein (P35918 with tags, fused parts or gaps DEL223-227): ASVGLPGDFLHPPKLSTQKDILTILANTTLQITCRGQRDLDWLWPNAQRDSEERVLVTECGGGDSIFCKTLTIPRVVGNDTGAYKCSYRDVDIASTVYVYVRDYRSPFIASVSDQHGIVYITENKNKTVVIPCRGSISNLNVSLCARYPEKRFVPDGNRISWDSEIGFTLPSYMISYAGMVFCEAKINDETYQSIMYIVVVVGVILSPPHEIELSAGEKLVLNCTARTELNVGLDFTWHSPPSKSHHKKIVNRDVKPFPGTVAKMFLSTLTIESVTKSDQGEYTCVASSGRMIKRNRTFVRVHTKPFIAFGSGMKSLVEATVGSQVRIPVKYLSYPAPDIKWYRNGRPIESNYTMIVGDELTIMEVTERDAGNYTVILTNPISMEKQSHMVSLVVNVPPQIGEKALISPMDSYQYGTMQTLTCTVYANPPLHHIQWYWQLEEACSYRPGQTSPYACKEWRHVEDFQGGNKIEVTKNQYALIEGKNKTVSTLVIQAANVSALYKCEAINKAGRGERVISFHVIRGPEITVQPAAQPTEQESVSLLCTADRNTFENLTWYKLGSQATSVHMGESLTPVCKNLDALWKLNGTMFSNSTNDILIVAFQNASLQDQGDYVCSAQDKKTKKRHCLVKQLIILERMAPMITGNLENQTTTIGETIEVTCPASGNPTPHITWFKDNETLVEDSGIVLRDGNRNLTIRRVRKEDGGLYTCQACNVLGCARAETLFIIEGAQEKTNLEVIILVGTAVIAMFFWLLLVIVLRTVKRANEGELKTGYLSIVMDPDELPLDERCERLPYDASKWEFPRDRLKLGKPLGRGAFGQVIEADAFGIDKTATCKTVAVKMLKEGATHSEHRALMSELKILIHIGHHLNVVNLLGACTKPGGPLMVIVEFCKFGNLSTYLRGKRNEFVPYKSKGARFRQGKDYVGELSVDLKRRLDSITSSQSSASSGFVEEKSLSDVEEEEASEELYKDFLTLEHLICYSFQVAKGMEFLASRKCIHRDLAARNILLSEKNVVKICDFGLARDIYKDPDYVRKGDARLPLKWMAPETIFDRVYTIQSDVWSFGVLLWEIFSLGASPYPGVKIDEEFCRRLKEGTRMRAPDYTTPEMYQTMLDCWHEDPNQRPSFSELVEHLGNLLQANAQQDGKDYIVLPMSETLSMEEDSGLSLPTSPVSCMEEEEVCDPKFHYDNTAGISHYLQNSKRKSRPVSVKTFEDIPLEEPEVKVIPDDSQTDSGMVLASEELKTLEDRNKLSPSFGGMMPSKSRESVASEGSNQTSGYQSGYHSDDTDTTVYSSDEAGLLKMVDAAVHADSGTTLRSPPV

PC-3 xenografts = test: PC-3 human prostate cancer xenograft model; format: in vivo, NOD/SCID mice
Description: Procedures involving animals and their care were conducted according to the guidelines of the Academia Sinica Institutional Animal Care and Utilization Committee in compliance with national and international laws and policies. Non-obese diabetic-severe combined immunodeficiency (NOD/SCID) mice were purchased from the National Laboratory Animal Center (Taiwan). The human prostate cancer xenograft tumor model was developed by subcutaneously injecting 2×10^6 PC-3 cells into the dorsal flank of a six-week old male mouse. Animals were monitored daily for general health, and body weights were measured twice weekly. Tumor size was measured with slide calipers and calculated as length×width^2×0.52. […] An antibody dose of 20 mg/kg was injected twice a week for four weeks. For combination therapy, docetaxel (ScinoPharm Taiwan) was also intravenously administered at a dose of 5 mg/kg once a week for three weeks. At the end of the experiment, tumor tissue and visceral organs were removed and fixed for histological analysis.
For tumor blood vessel studies, samples were fixed in OCT. Frozen blocks were cut into 50 μm sections, and frozen tumor tissue sections were fixed with 1% paraformaldehyde, permeabilized with 0.1% TRITON™-X 100, blocked with normal horse serum (Vector), and then incubated for 1 hour at room temperature (RT) with a 1:100 dilution of the primary antibody (rat anti-mouse CD31 (PECAM-1); BD Bioscience). Subsequently, the tissue sections were incubated with Alexa 549-conjugated goat anti-rat antibody (Invitrogen) at room temperature for 1 hour. Nuclei were stained with DAPI, and sections were then mounted with fluorescent mounting solution. Immunofluorescent images were acquired using a Zeiss Axiovert 200M microscope. Positive areas of CD31 endothelial cells were quantified by pixel area counting and normalized with DAPI staining using ImageJ software under low power magnification.
The frozen tumor tissue sections were fixed with 1% paratbrmaldehyde and permeabilized with 0.1% TRITON™-X 100, before being incubated with terminal deoxynucleotidyltransferase-mediated dUTP nick end labeling reaction mixture (Roche Diagnostics) at 37° C. for 1 hour. After washing three times with PBS, the slides were incubated with FITC-anti-DIG antibody (1:2000) and DAPI (1:500). Slides were mounted with mounting solution and visualized under a fluorescent microscope. Slides were independently examined by three individuals. Areas with TUNEL-positive cells were quantified by pixel area counting, and normalized to DAPI staining using ImageJ software.

[1] = tested on: HL-60 leukemia xenografts; test: HL-60 leukemia xenograft model; format: in vivo, NSG mice
Description: For systemic leukemia engraftment studies, NOD/SCID/IL2Rγ−/− (NSG) mice were obtained from the Animal Center of the Institute of Cellular and Organismic Biology, Academia Sinica. Six-week old females were intravenously injected with 5×10^6 HL-60 cells through the tail vein. Animals were monitored daily for general health, and body weights were measured twice weekly. […] Mice were observed daily for signs of toxicity, and the survival times were recorded. At the end-point of treatment, the visceral organs of each mouse were removed and fixed for further histological examination.
Tumors and indicated organs were dissected from mice and fixed in 4% paraformaldehyde overnight. Fixation and processing of specimens were performed in accordance with standard procedures. The specimens were embedded in paraffin and cut into […] sections. Rehydrated paraffin-embedded tissue sections were stained with Mayer's hematoxylin solution (Wako) for 5 minutes and washed with water for 1-2 minutes. The slides were then stained with eosin solution (Wako) for 10 minutes. Tissues were visualized with Tissue Gnostics microscopes.

VEGFR2-Fc [2] = molecular target: T1, VEGFR2-Fc (Homo sapiens, UniProt P35968); test: Screening of anti-VEGFR2 phage clones by ELISA; format: binding; conditions: 1×10^9 cfu phage titer
T1 construct: purchased R&D Systems
T1 sequence (P35968 with tags, fused parts or gaps limits assumed): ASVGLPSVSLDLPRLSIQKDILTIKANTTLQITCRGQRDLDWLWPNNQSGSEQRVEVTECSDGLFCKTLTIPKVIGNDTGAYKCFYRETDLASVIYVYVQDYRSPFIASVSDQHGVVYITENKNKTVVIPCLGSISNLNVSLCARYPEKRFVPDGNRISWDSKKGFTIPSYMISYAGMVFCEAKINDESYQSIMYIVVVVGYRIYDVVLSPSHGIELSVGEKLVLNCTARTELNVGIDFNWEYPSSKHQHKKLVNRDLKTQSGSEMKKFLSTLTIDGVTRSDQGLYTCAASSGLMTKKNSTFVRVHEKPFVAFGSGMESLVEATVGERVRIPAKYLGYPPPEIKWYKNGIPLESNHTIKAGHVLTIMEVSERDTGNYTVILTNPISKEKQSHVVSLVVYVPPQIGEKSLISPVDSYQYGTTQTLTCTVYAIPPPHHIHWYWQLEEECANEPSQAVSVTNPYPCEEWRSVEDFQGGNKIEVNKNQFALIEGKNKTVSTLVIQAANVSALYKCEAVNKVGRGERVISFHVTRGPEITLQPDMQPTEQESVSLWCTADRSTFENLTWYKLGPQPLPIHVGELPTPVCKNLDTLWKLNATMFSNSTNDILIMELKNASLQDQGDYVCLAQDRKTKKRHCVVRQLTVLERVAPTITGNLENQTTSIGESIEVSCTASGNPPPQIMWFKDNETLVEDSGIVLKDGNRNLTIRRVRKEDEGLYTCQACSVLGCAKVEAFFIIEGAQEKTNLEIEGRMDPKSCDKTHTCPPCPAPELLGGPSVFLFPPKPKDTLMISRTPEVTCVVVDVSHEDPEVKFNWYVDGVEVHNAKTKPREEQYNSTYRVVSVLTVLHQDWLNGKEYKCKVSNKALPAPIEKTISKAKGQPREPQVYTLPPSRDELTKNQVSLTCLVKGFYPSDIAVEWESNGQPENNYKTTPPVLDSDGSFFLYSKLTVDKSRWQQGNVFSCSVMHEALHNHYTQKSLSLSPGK
Description: (§1) The selected phages were further examined by ELISA screening. The 96-well plates were coated with 1 μg/ml of VEGFR2-Fc, Met-Fc (R&D), or BSA (Sigma) protein in 0.1 M sodium bicarbonate overnight at 4° C. After blocking with 1% BSA in PBS (w/v) for 2 hr at room temperature, 70-randomly selected phage clones were added to the plates at a 1:2 dilution in 1% BSA, and incubated for 1 hr at room temperature. Following washes with PBST, the plates were incubated with a 1:2000 dilution of horseradish peroxidase (HRP)-conjugated mouse anti-M13 phage antibody (GE) for 1 hr. After washing with PBST, the colorimetric reaction was developed with the peroxidase substrate ortho-phenylenediamine (OPD; Sigma) plus H2O2 for 15 min, and then terminated by the addition of 3 N HCl. The absorbance at 490 nm was determined using a microplate reader (SpectraMax, Molecular Devices). Plasmid DNA of positive clones were isolated and sequenced using the pCANTAB5 sequencing primer set.

Met-Fc = test: Phage clone ELISA on control protein; format: binding
Description: as §1

[3] = tested on: VEGFR2 on the cell surface of HUVEC; test: Flow cytometry binding to HUVECs; format: cell-based, human; conditions: FACS; 1×10^10 cfu
Description: About 1×10^4 HUVEC were incubated with the selected anti-VEGFR2 phage clones at 4° C. for 1 hour in FACS buffer (PBS containing 1% fetal bovine serum). After the cells were washed with FACS buffer, they were first incubated with mouse anti-M13 phage Ab for 1 hr at 4° C., and then with R-phycoerythrin-conjugated goat anti-mouse IgG (Jackson Immuno Research) for 30 min at 4° C. Flow cytometry was performed with a FACSCantoII (BD), and emission fluorescence intensity was measured with FACS Diva software (BD) to quantitatively compare binding affinities.

VEGFR2-Fc [4] = molecular target: T1, VEGFR2-Fc; test: ELISA binding of R2S12 and R2S12-AF scFv to VEGFR2-Fc (affinity maturation)
Description: (A) Affinity maturation for R2S12. […] Subsequently, the beads were washed four times with PBS containing 1% TWEEN™ 20. After four rounds of biopanning, the recovery rate of the phages was increased by 929-fold over that of the first round. (B) Comparison of the binding activity of the indicated concentrations of R2S12 and R2S12-AF scFv to VEGFR2-Fc protein, as assayed by ELISA. Error bar, SE.
Affinity maturation was performed as previously described. […] This synthetic library was used to perform biopanning for VEGFR2-Fc-immobilized DYNABEADS®. After four to five rounds of stringent in vitro biopanning, positive clones were screened and identified by ELISA.

[5] = 20 mg/kg i.v. twice weekly from day 3

How did the FAK phosphorylation (VEGFR2 signaling pathway) turn out when “IMC-1121B: FDA-approved anti-VEGFR2 human antibody (Ramucirumab), expressed by the applicant as human IgG1 [reference compound]” was run?
Its FAK phosphorylation is “only marginally reduced”.

And the “cross-reaction / binding to murine VEGFR2” value (murine VEGFR2 protein)?
The value was “not”.

What about the tumor growth reduction (PC-3 xenografts; by day 38, antibody 20 mg/kg i.v. twice a week, docetaxel 5 mg/kg i.v. once a week) of the same molecule?
The tumor growth reduction was 45%.

What about the “changes in body weight during the treatment period” value (PC-3 xenografts; compared to the NHIgG group or docetaxel alone) of the same molecule?
Its value is “no significant changes”.

What about the “docetaxel-induced toxicity (body weight as surrogate)” value (PC-3 xenografts; in combination with docetaxel) of the same molecule?
Its value is “do not enhance”.

And the median survival [1, 5]?
The median survival was 43 days.

And the survival time [1, 5]?
Its survival time is 56 days.

What about the “lymph nodes with leukemia infiltration” value ([1]; n=9 per group) of the same molecule?
The value was “five of nine”.

B1: R2PC12: phage-displayed human scFv clone binding VEGFR2; VH CDR1-3 SEQ ID NO: 6-8, VL CDR1/CDR3 SEQ ID NO: 9, 10 (antibody, V domains shown)
VH: QVNLRESGGGLVKPGGSLRLSCAASGFTFGSYTMNWVRQAPGKGLEWVASITSGSSYIFYTDSVKGRFTISRDNSRSSLFLQMNSLRAEDTAIYYCARGSASAFDIWGQGTMVTVSS
VL: DIQMTQSPSSLSASVGDRVTITCKASDDIINYLNWYQQKPGEAPKLLIYDASILETGVPSRFSGSGSGTDFTFTISSLQPEDIATYYCQQYDILPLTFGGGTKLEIK
For B1, which “binding of phage clones to VEGFR2-Fc” value (VEGFR2-Fc [2]) is on record?
The value was “bind highly”.

What about the “binding of phage clones to c-Met-Fc control protein” value (Met-Fc) of the same molecule?
The value was “not”.

And the “binding of phage clones to VEGFR2 on HUVEC cell surface” value [3]?
Its value is “greatest reactivity”.

B2: R2S12AF: affinity-matured scFv clone of R2S12; VH SEQ ID NO: 76, VL SEQ ID NO: 78, VL-CDR3 QQLDDIPIT (antibody, V domains shown)
VH: QVNLRESGGGLVKPGGSLRLSCAASGFTFGSYTMNWVRQAPGKGLEWVASITSGSSYIFYTDSVKGRFTISRDNSRSSLFLQMNSLRAEDTAIYYCARGSASAFDIWGQGTMVTVSS
VL: DIQMTQSPSSLSASVGDRVTITCKASDDIINYLNWYQQKPGEAPKLLIYDASILETGVPSRFSGSGSGTDFTFTISSLQPEDIATYYCQQLDDIPITFGGGTKLEIK
modifications: scFv linker; VH region of R2S12 or R2S12-AF; VL region of R2S12AF
How did the “binding activity to VEGFR2-Fc compared with parental clone R2S12” value (VEGFR2-Fc [4]) turn out when B2 was run?
Its value is “superior binding activity”.
